Test results as given in US7579150B1, “Mobile RNA acts as a signal to regulate plant growth and development” (Iowa State University Research Foundation, Inc., priority 2004, dated 2009).

Experiments:
[1] = molecular target: T1, POTH1 (Solanum tuberosum); test: cell_activity; details: tobacco protoplasts, GUS reporter
T1 chain: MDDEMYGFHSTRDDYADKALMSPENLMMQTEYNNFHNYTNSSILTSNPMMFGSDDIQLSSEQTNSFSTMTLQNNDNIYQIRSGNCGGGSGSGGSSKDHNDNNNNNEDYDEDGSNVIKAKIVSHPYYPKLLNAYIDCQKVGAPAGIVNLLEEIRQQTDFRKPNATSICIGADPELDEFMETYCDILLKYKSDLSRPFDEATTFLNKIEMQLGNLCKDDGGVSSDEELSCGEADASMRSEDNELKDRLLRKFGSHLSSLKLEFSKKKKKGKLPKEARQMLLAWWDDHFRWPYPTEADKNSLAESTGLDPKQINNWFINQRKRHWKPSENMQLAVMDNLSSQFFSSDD

[2] = molecular target: T2, StBEL-05 (Solanum tuberosum); test: cell_activity; details: tobacco protoplasts, GUS reporter
T2 chain: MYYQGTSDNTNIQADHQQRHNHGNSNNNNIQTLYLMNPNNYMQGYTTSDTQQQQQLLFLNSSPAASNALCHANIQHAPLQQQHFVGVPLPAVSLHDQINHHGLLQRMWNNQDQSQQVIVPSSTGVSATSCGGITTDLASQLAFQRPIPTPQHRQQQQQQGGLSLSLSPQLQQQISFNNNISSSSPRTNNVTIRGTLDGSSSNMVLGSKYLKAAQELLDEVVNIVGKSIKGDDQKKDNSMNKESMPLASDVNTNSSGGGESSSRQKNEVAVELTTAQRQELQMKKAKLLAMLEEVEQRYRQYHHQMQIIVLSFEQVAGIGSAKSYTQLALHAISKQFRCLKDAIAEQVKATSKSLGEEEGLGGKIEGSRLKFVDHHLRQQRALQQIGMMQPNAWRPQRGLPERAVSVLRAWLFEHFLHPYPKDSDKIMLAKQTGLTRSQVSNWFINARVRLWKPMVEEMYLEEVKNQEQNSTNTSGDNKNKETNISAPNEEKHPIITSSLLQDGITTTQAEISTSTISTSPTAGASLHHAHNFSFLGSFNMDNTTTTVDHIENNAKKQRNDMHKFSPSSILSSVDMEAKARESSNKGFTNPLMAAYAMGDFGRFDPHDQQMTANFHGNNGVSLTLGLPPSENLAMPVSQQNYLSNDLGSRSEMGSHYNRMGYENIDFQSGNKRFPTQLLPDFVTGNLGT

[3] = molecular target: T3, StBEL-05/POTH1 heterodimer (Solanum tuberosum); test: cell_activity; details: tobacco protoplasts, GUS reporter
T3 chain 1: T2 chain
T3 chain 2: T1 chain

[4] = molecular target: T4, pBHD9, first amino-terminal 114 aa of POTH1 in pBridge (GAL4 DNA-binding domain fusion) (Solanum tuberosum); test: in vitro binding protocol (immunoprecipitation of in vitro translated proteins)
T4 construct: also called pBDH9

[5] = molecular target: T5, GAD protein alone (GAL4 activation domain) (UniProt P04386 768-881, limits assumed); test: immunoprecipitation of in vitro translated 35S-labelled proteins with anti-GAD antibodies
T5 construct: domain: GAD; Negative control of the immunoprecipitation assay
T5 sequence (looked up): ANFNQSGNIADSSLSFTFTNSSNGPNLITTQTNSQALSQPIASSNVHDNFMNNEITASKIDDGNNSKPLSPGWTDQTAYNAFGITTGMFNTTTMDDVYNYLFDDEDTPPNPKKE
Experimental: (§1) In vitro binding experiments were performed as described by Ni et al., "PIF3, a Phytochrome-Interacting Factor Necessary for Normal Photoinduced Signal Transduction, is a Novel Basic Helix-Loop-Helix Protein," *Cell* 95:657-667 (1998), which is hereby incorporated by reference in its entirety. The full-length sequence for POTH1 was cloned into a pET17b/GAD fusion cassette and transcribed under the control of the T7 promoter. The BEL cDNAs were cloned into pGEM11Z vectors and were transcribed under the control of the T7 promoter. ^35S-methionine labeled bait and prey proteins were synthesized using the TnT in vitro transcription-translation kit (Promega) according to the manufacturer's protocols. Each 50 µl TnT reaction contained 2.0 µg of template plasmid DNA and […] (20 µCi) of labeled ^35S-methionine. The POTH1:GAD/BEL complex was immunoprecipitated with anti-GAD antibodies (Santa Cruz Biotechnology, CA). The proteins from the pellet (one-half the fraction) and for the prey (one-fourth of the reaction volume) were resolved on a 10% SDS-PAGE gel and visualized by autoradiography.

[6] = molecular target: T6, GAD:POTH1 fusion protein (full-length POTH1 fused to the GAL4 activation domain) (Solanum tuberosum, 35S-methionine labelled (in vitro translation)); test: immunoprecipitation of in vitro transcribed/translated proteins
T6 construct: In vitro transcribed/translated bait of the immunoprecipitation assay; no 35S label there; also called POTH1:GAD
T6 chain: T1 chain
Experimental: as §1

[7] = molecular target: T6, GAD:POTH1 fusion protein (full-length …); test: co-immunoprecipitation of in vitro translated 35S-labelled proteins with anti-GAD antibodies, SDS-PAGE and autoradiography
Experimental: as §1

[8] = molecular target: T7, StBEL-05 in pBridge (GAL4 DNA-binding domain fusion) (Solanum tuberosum); test: yeast two-hybrid, reciprocal orientation
T7 construct: Range derived as for m2

ga20ox1 promoter reporter (980 bp)
activity [1]: > 50 % repression
activity [2]: > 50 % repression
activity [3]: 80 % repression

B1: StBEL-05 protein synthesized in vitro from pGEM11Z (other)
chain: T2 chain
modifications: 35S-methionine labelled (in vitro translation)
notes: BEL cDNA cloned into pGEM11Z under the T7 promoter; also called p11Z-5
binding result [4]: no binding
binding result [5]: no binding

B2: StBEL-13 protein synthesized in vitro from pGEM11Z (other)
chain: MVMGGGASSQQLGYAKNHTPNVAESMQLFLMNPQPRSPSPSPPNSTSSTLHMLLPNPSSTSTLQGFPNPAEGSFGQFITWGNGGASAATATHHLNAQNEIGGVNVVESQGLSLSLSSSLQHKAEELQMSGEAGGMMFFNQGGSSTSGQYRYKNLNMGGSGVSPNIHQVHVGYGSSLGVVNVLRNSKYAKAAQELLEEFCSVGRGKLKKTNNKAAANNPNTNPSGANNEASSKDVPTLSAADRIEHQRRKVKLLSMVDEVDRRYNHYCEQMQMVVNSFDLVMGFGTAVPYTALAQKAMSRHFRCLKDAIGAQLKQSCELLGEKDAGNSGLTKGETPRLKMLEQSLRQQRAFHQMGMMEQEAWRPQRGLPERSVNILRAWLFEHFLHPYPSDADKHLLARQTGLSRNQVSNWFINARVRLWKPMVEDMYQQEAKDEDGDGDEKSQSQNSGNNIIAQTPTPNSLTNTSSTNMTTTTAPTTTTALAAAETGTAATPITVTSSKRSQINATDSDPSLVAINSFSENQATFPTNIHDPDDCRRGNLSGDDGTTTHDHMGSTMIRFGTTAGDVSLTLGLRHAGNLPENTHFFG
modifications: 35S-methionine labelled (in vitro translation)
notes: BEL cDNA cloned into pGEM11Z under the T7 promoter; also called p11Z-13
binding result [5]: no binding
binding result [6]: binds

B3: StBEL-30 protein synthesized in vitro from pGEM11Z (other)
chain: MATYFPSPNNQRDADQTFQYFRQSLPESYSEASNAPENMMVFMNYSSSGAYSDMLTGTSQQQHNCIDIPSIGATPFNTSQQEILSNLGGSQMGIQDFSSWRDSRNEMLADNVFQVAQNVQGQGLSLSLGSNIPSGIGISHVQSQNPNQGGGFNMSFGDGDNSQPKEQRNADYFPPDNPGRDLDAMKGYNSPYGTSSIARTIPSSKYLKAAQYLLDEVVSVRKAIKEQNSKKELTKDSRESDVDSKNISSDTPANGGSNPHESKNNQSELSPTEKQEVQNKLAKLLSMLDEIDRRYRQYYHQMQIVVSSFDVVAGEGAAKPYTALALQTISRHFRCLRDAICDQIRASRRSLGEQDASENSKAIGISRLRFVDHHIRQQRALQQLGMMQQHAWRPQRGLPESSVSVLRAWLFEHFLHPYPKDSDKIMLARQTGLTRSQVSNWFINARVRLWKPMVEEMYKEEAGDAKIDSNSSSDVAPRLATKDSKVEERGELHQNAASEFEQYNSGQILESKSNHEADVEMEGASNAETQSQSGMENQTGEPLPAMDNCTLFQDAFVQSNDRFSEFGSFGSGNVLPNGVSLTLGLQQGEGSNLPMSIETHVSYVPLRADDMYSTAPTTMVPETAEFNCLDSGNRQQPFWLLPSAT
modifications: 35S-methionine labelled (in vitro translation)
notes: BEL cDNA cloned into pGEM11Z under the T7 promoter; also called p11Z-30
binding result [5]: no binding
binding result [7]: binds

B4: pBHD9 construct (first 114 aa of POTH1) cloned into the pGAD vector (GAL4 activation domain fusion) (other, not shown: large carriers)
chain: MDDEMYGFHSTRDDYADKALMSPENLMMQTEYNNFHNYTNSSILTSNPMMFGSDDIQLSSEQTNSFSTMTLQNNDNIYQIRSGNCGGGSGSGGSSKDHNDNNNNNEDYDEDGSN
notes: also called pBDH9 construct in pGAD
binding result [8]: no binding
